Data taken from the supplement of paper PMC10567573.

B1: ETS2 (parent)
chain: TSGKRYVYRFVCDLQNLLGFTPEE
B2: TRIM14 (parent)
chain: YARTPTLDPDTMHARLRLSADRLT

Variants of: B1
Assay: protein stability index of a GFP-peptide fusion (GPS, HEK-293T) (PSI 1-6); higher = more stable
Details: c terminus: a fixed tail appended
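Note: lentivirally expressed fusions sorted by FACS into six bins by GFP to DsRed ratio, PSI derived from sequencing read proportions per bin multiplied by bin number.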

Row | Variant | protein stability index
1 | TSGKRYVYRFVCDLQPLLGFTPEE [N16P] | 2.56
2 | TSGKRYVYRFVCDLQDLLGFTPEE [N16D] | 2.17
3 | TSGKRYVYRFVCDLQMLLGFTPEE [N16M] | 1.53
4 | TSGKGYVYRFVCDLQNLLGFTPEE [R5G] | 3.53
5 | TSGKVYVYRFVCDLQNLLGFTPEE [R5V] | 1.72
6 | TSGKSYVYRFVCDLQNLLGFTPEE [R5S] | 2.87
7 | TSGKRYVYRFVCDLQNLLGKTPEE [F20K] | 1.77
8 | TSGKRYVYRFVCDLQNLLGNTPEE [F20N] | 3.28
9 | TSGKRYVYRFVCDLQNLLGWTPEE [F20W] | 3.05
10 | TSGKRYVYRFVCDLQNLLGLTPEE [F20L] | 2.17
11 | TSGKRYVYRFVCDLQNLLGCTPEE [F20C] | 1.93
12 | TSHKRYVYRFVCDLQNLLGFTPEE [G3H] | 2.83
13 | TSVKRYVYRFVCDLQNLLGFTPEE [G3V] | 1.86
14 | TSSKRYVYRFVCDLQNLLGFTPEE [G3S] | 2.36
15 | TSGKRYVYRFVCDLQNLLGFTVEE [P22V] | 1.05
16 | TSGKRYVYRFVCDLQNLLGFTNEE [P22N] | 1.39
17 | TSGKRYVYRFVCDLQNLLGFTREE [P22R] | 3.16
18 | TSGKRYVYRFVCDLQNLLGFTHEE [P22H] | 2.07
19 | TSGKRYVYRFVCDLQNLLGFTPVE [E23V] | 2.1
20 | TSGKRYVYRFVCDLQNLLGFTPRE [E23R] | 3.3
21 | TSGKRYVYRFVCDLQNLLGFTPCE [E23C] | 2.97
22 | TSGKRYVYRFVCDLQNLLGFTPNE [E23N] | 2.43
23 | TSGKRYVYREVCDLQNLLGFTPEE [F10E] | 2.75
24 | TSGKRYVYRHVCDLQNLLGFTPEE [F10H] | 2.04
25 | TSGKRYVYRRVCDLQNLLGFTPEE [F10R] | 3.5
26 | TSGKRYVYRAVCDLQNLLGFTPEE [F10A] | 2.02
27 | TSGKRYVYRFVCDFQNLLGFTPEE [L14F] | 2.08

Row | Variant | protein stability index
28 | TSGKRYVYRFVCDDQNLLGFTPEE [L14D] | 3.01
29 | TSGKRYVYRFVCDCQNLLGFTPEE [L14C] | 2.07
30 | TSGKRYVYRFVCDYQNLLGFTPEE [L14Y] | 2.56
31 | TSGKRYVYRFVCDVQNLLGFTPEE [L14V] | 2.39
32 | TSGKRTVYRFVCDLQNLLGFTPEE [Y6T] | 2.3
33 | TSGKRQVYRFVCDLQNLLGFTPEE [Y6Q] | 1.86
34 | TSGKRSVYRFVCDLQNLLGFTPEE [Y6S] | 2.26
35 | TSGKRPVYRFVCDLQNLLGFTPEE [Y6P] | 2.59
36 | TSGKRYVYRFVCDLQNLLGFTPEM [E24M] | 1.6
37 | TSGKRYVYRFVCDLQNLLGFTPEG [E24G] | 2.14
38 | TSGKRYVYRFVCDLQNLLTFTPEE [G19T] | 1.79
39 | TSGKRYVYRFVCDLQNLLDFTPEE [G19D] | 1.98
40 | TSGKRYVYRFVCDLQNLLGFEPEE [T21E] | 2.32
41 | TSGKRYVYRFVCDLQNLLGFPPEE [T21P] | 2.44
42 | TSGKRYVYRFVCDLQNLLGFAPEE [T21A] | 2.11
43 | TSGKRYVYRFVCDLQNLLGFGPEE [T21G] | 1.95
44 | TSGKRYFYRFVCDLQNLLGFTPEE [V7F] | 2.25
45 | TSGKRYSYRFVCDLQNLLGFTPEE [V7S] | 2.83
46 | TSGKRYKYRFVCDLQNLLGFTPEE [V7K] | 2.3
47 | TSGKRYMYRFVCDLQNLLGFTPEE [V7M] | 3.69
48 | CSGKRYVYRFVCDLQNLLGFTPEE [T1C] | 1.7
49 | GSGKRYVYRFVCDLQNLLGFTPEE [T1G] | 2.08
50 | SSGKRYVYRFVCDLQNLLGFTPEE [T1S] | 2.4
51 | TSGKRYVYRFVCDLQNLWGFTPEE [L18W] | 2.1
52 | TSGKRYVYRFVCDLQNLHGFTPEE [L18H] | 1.32
53 | TSGKRYVYRFVCDLQNLCGFTPEE [L18C] | 1.39
54 | TSGKRYVYRFVCDLVNLLGFTPEE [Q15V] | 2.47

Row | Variant | protein stability index
55 | TSGKRYVYRFVCDLLNLLGFTPEE [Q15L] | 2.44
56 | TSGKRYVYRFVCDLCNLLGFTPEE [Q15C] | 2.23
57 | TSGKRYVYRFLCDLQNLLGFTPEE [V11L] | 2.82
58 | TSGKRYVYRFNCDLQNLLGFTPEE [V11N] | 2.67
59 | TSGKRYVYRFRCDLQNLLGFTPEE [V11R] | 1.57
60 | TSGKRYVYRFYCDLQNLLGFTPEE [V11Y] | 2.14
61 | TSGKRYVYRFVCDLQNALGFTPEE [L17A] | 2.08
62 | TSGKRYVYRFVCDLQNCLGFTPEE [L17C] | 2.57
63 | TSGKRYVYRFVCDLQNGLGFTPEE [L17G] | 2.31
64 | TSGKRYVYRFVCDLQNWLGFTPEE [L17W] | 2.21
65 | TSGTRYVYRFVCDLQNLLGFTPEE [K4T] | 2.17
66 | TSGKRYVYRFVEDLQNLLGFTPEE [C12E] | 1.76
67 | TDGKRYVYRFVCDLQNLLGFTPEE [S2D] | 2.89
68 | TEGKRYVYRFVCDLQNLLGFTPEE [S2E] | 2.33
69 | TCGKRYVYRFVCDLQNLLGFTPEE [S2C] | 1.64
70 | TLGKRYVYRFVCDLQNLLGFTPEE [S2L] | 3
71 | TSGKRYVYIFVCDLQNLLGFTPEE [R9I] | 1.68
72 | TSGKRYVYSFVCDLQNLLGFTPEE [R9S] | 1.92
73 | TSGKRYVYEFVCDLQNLLGFTPEE [R9E] | 1.78
74 | TSGKRYVFRFVCDLQNLLGFTPEE [Y8F] | 1.55
75 | TSGKRYVRRFVCDLQNLLGFTPEE [Y8R] | 2.23
76 | TSGKRYVYRFVCKLQNLLGFTPEE [D13K] | 2.48
77 | TSGKRYVYRFVCALQNLLGFTPEE [D13A] | 2.67
78 | TSGKRYVYRFVCRLQNLLGFTPEE [D13R] | 2.11
79 | TSGKRYVYRFVCWLQNLLGFTPEE [D13W] | 2.98

Variants of: B2
Assay: as above
Details: c terminus: a fixed tail appended

Row | Variant | protein stability index
80 | YARKPTLDPDTMHARLRLSADRLT [T4K] | 2.61
81 | YARRPTLDPDTMHARLRLSADRLT [T4R] | 3.13
82 | YARSPTLDPDTMHARLRLSADRLT [T4S] | 2.47
83 | YARAPTLDPDTMHARLRLSADRLT [T4A] | 2.37
84 | YARQPTLDPDTMHARLRLSADRLT [T4Q] | 2.84
85 | YARGPTLDPDTMHARLRLSADRLT [T4G] | 2.21
86 | YARLPTLDPDTMHARLRLSADRLT [T4L] | 2.16
87 | YARCPTLDPDTMHARLRLSADRLT [T4C] | 1.95
88 | YARHPTLDPDTMHARLRLSADRLT [T4H] | 2.67
89 | YARYPTLDPDTMHARLRLSADRLT [T4Y] | 2.32
90 | YARVPTLDPDTMHARLRLSADRLT [T4V] | 2.78
91 | YARNPTLDPDTMHARLRLSADRLT [T4N] | 3.1
92 | YARIPTLDPDTMHARLRLSADRLT [T4I] | 3.04
93 | YARWPTLDPDTMHARLRLSADRLT [T4W] | 1.17
94 | YARMPTLDPDTMHARLRLSADRLT [T4M] | 2.45
